Assay results from publication PMC2248580.

Molecular target: human activated blood coagulation factor X (FXa) (human)
Test: SPR; […]; 37°C; HBS (10 mM Hepes, 150 mM NaCl, 5 mM CaCl2, 0.005% P20, pH 7.4); Langmuir fit; […]

Sequence of human activated blood coagulation factor X (FXa) (human) (P00742 whole entry): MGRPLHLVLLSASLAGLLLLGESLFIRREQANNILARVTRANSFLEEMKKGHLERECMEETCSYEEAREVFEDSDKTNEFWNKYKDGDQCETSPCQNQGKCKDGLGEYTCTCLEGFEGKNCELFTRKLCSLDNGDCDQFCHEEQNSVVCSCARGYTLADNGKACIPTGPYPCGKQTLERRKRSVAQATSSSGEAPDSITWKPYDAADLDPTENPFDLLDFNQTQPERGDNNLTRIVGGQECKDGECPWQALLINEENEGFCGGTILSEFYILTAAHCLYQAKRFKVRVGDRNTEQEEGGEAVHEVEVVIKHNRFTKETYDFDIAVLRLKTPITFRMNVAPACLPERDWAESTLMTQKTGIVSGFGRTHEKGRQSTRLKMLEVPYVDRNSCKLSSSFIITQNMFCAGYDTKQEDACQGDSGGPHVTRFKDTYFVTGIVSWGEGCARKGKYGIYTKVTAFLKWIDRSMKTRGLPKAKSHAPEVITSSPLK

Binder | Kd | koff | kon
isoform A of ammodytoxin from Vipera ammodytes ammodytes venom (enzyme) SLLEFGMMILGETGKNPLTSYSFYGCYCGVGGKGTPKDATDRCCFVHDCCYGNLPDCSPKTDRYKYHRENGAIVCGKGTSCENRICECDRAAAICFRKNLKTYNYIYRNYPDFLCKKESEKC | 30 nM | 0.007 s⁻¹ | 220000 M⁻¹ s⁻¹
Non-pancreatic secreted human group IIA phospholipase A2 (enzyme) NLVNFHRMIKLTTGKEAALSYGFYGCHCGVGGRGSPKDATDRCCVTHDCCYKRLEKRGCGTKFLSYKFSNSGSRITCAKQDSCRSQLCECDKAAATCFARNKTTYNKKYQYYSNKHCRGSTPRC | 14 nM | 0.029 s⁻¹ | 2e+06 M⁻¹ s⁻¹
